From patent publication US20090130093A1 (AstraZeneca / MedImmune, published 2009)

T1: human GM-CSFRα (mature receptor alpha chain, as on human cells) (human, UniProt P15509 23-400)
T1 sequence: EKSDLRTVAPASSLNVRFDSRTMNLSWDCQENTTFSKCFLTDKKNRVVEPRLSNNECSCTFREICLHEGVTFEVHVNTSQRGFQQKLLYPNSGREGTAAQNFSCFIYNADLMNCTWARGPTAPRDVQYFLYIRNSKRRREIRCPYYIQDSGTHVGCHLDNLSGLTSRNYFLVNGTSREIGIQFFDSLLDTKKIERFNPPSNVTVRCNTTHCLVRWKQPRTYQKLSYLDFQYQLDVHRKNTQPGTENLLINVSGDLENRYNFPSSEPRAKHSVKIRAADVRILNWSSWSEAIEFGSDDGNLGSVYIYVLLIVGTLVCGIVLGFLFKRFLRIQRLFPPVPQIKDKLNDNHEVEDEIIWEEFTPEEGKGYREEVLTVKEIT

T2: cynomolgus GM-CSFRα on cynomolgus granulocytes (cynomolgus, UniProt A0A2K5UC70 23-393)
T2 sequence: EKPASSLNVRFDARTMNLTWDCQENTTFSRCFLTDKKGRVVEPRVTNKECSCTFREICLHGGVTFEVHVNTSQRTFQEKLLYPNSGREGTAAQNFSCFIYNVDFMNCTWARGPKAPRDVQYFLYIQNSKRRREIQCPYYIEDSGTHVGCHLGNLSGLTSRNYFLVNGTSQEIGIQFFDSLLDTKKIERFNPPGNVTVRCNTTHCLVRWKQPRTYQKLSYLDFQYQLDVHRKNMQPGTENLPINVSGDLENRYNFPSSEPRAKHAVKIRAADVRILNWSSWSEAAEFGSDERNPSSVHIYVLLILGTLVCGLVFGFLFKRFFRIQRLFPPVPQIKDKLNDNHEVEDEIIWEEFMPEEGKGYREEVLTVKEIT


Tests used:
Assay in all cases: cell-based or functional assay
[1] = target: T1, human GM-CSFRα (mature receptor alpha …)
[2] = target: T2, cynomolgus GM-CSFRα on cynomolgus …
[3] = target: T1, human GM-CSFRα (mature receptor alpha …); remark: listed apart in the source

IC50, GM-CSF induced proliferation of TF-1 cells [1] [nM]	IC50, cynomolgus granulocyte shape change assay [2] [nM]	Binder	also measured
1.11		Antibody 13 IgG4 (antibody, V domains shown) VH: QVQLVQSGAEVKKPGASVKVSCKISGHSLSELSIHWVRQTPTKGFEWMGGFDPEENEIVYAQRFQGRVTMTEDTSIDTAYLTLSSLRSDDTAVYYCSIVGSFSGWAFDYWGKGTMVTVSS VL: QAVLTQPSSVSGAPGQRVTISCTGSGSNIGAPYDVSWYQQLPGTAPKLLIYHNNKRPSGVPDRFSASKSGTSASLAITGLQADDEADYYCQSYDSRTGIIVFGGGTKVTVL	
	0.00173	Antibody 6 IgG4, non-germlined (antibody, V domains shown) VH: QVQLVQSGAEVKKPGASVKVSCKISGHSLSELSIHWVRQTPTKGFEWMGGFDPEENEIVYAQRFQGRVTMTEDTSIDTAYLTLSSLRSDDTAVYYCSIVGSFSPLTLGLWGKGTMVTVSS VL: QAVLTQPSSVSGAPGQRVTISCTGSGSNIGAPYDVSWYQQLPGTAPKLLIYHNNKRPSGVPDRFSASKSGTSASLAITGLQADDEADYYCATVEAGLSGSVFGGGTKLTVL	
0.0133		Antibody 18 IgG4 (antibody, V domains shown) VH: QVQLVQSGAEVKKPGASVKVSCKISGHSLSELFIHWVRQTPTKGFEWMGGFDPEENEIVYAQRFQGRVTMTEDTSIDTAYLTLSSLRSDDTAVYYCSTVGSFSGPALHLWGKGTMVTVSS VL: QAVLTQPSSVSGAPGQRVTISCTGSGSNIGAPYDVSWYQQLPGTAPKLLIYHNNKRPSGVPDRFSASKSGTSASLAITGLQADDEADYYCQSYDSQWNQPLFGGGTKVTVL	
	~5	28G5 (Antibody 3) IgG4, parent antibody (antibody, V domains shown) VH: QVQLVQSGAEVKKPGASVKVSCKISGHSLSELSIHWVRQTPTKGFEWMGGFDPEENEIVYAQRFQGRVTMTEDTSIDTAYLTLSSLRSDDTAVYYCSIVGSFSGWAFDYWGKGTMVTVSS VL: QAVLTQPSSVSGAPGQRVTISCTGSGSNIGAPYDVSWYQQLPGTAPKLLIYHNNKRPSGVPDRFSASKSGTSASLAITGLQADDEADYYCQSYDSSLSGSVFGGGTKVTVL	
	0.0032	Antibody 2 IgG4 (antibody, V domains shown) VH: QVQLVQSGAEVKKPGASVKVSCKISGHSLSELSIHWVRQTPTKGFEWMGGFDPEENEIVYAQRFQGRVTMTEDTSIDTAYLTLSSLRSDDTAVYYCSIVGSFSGPALRPWGKGTMVTVSS VL: QAVLTQPSSVSGAPGQRVTISCTGSGSNIGAPYDVSWYQQLPGTAPKLLIYHNNKRPSGVPDRFSASKSGTSASLAITGLQADDEADYYCQSYDSSLSGSVFGGGTKVTVL	
		Antibody 6 (germlined or non-germlined not stated at these places) (antibody, V domains shown) VH: QVQLVQSGAEVKKPGASVKVSCKVSGYTLTELSIHWVRQAPGKGLEWMGGFDPEENEIVYAQRFQGRVTMTEDTSTDTAYMELSSLRSEDTAVYYCAIVGSFSPLTLGLWGQGTMVTVSS VL: QSVLTQPPSVSGAPGQRVTISCTGSGSNIGAPYDVSWYQQLPGTAPKLLIYHNNKRPSGVPDRFSGSKSGTSASLAITGLQAEDEADYYCATVEAGLSGSVFGGGTKLTVL	IC50, colony formation assay with 10 ng/ml human GM-CSF [3]: ~0.08 µg/mL
